Data published in patent US6518016.

Target: factor Xa-activated factor V(Q506) (UniProt P12259)
UniProt P12259, sequence (P12259 29-737 R534Q, chain 1 of 2): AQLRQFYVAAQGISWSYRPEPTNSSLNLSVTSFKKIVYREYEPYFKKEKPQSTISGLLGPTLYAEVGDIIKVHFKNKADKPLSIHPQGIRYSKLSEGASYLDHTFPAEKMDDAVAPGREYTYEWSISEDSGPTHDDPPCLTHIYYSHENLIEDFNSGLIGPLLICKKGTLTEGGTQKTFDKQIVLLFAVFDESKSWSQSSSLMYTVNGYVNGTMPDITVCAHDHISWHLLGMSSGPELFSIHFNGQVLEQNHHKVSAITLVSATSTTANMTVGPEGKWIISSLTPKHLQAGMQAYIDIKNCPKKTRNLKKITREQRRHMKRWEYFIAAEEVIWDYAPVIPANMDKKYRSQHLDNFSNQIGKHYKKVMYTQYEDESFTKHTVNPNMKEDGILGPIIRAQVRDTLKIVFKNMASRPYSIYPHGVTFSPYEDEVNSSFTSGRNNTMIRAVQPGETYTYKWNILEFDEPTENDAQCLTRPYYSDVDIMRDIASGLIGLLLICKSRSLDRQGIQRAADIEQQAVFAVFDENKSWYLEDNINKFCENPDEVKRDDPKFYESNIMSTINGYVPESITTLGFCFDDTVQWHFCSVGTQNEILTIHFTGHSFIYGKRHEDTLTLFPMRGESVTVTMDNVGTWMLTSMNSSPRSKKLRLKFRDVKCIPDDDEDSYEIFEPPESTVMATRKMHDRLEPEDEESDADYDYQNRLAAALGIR
UniProt P12259, sequence (P12259 1047-2224, chain 2 of 2): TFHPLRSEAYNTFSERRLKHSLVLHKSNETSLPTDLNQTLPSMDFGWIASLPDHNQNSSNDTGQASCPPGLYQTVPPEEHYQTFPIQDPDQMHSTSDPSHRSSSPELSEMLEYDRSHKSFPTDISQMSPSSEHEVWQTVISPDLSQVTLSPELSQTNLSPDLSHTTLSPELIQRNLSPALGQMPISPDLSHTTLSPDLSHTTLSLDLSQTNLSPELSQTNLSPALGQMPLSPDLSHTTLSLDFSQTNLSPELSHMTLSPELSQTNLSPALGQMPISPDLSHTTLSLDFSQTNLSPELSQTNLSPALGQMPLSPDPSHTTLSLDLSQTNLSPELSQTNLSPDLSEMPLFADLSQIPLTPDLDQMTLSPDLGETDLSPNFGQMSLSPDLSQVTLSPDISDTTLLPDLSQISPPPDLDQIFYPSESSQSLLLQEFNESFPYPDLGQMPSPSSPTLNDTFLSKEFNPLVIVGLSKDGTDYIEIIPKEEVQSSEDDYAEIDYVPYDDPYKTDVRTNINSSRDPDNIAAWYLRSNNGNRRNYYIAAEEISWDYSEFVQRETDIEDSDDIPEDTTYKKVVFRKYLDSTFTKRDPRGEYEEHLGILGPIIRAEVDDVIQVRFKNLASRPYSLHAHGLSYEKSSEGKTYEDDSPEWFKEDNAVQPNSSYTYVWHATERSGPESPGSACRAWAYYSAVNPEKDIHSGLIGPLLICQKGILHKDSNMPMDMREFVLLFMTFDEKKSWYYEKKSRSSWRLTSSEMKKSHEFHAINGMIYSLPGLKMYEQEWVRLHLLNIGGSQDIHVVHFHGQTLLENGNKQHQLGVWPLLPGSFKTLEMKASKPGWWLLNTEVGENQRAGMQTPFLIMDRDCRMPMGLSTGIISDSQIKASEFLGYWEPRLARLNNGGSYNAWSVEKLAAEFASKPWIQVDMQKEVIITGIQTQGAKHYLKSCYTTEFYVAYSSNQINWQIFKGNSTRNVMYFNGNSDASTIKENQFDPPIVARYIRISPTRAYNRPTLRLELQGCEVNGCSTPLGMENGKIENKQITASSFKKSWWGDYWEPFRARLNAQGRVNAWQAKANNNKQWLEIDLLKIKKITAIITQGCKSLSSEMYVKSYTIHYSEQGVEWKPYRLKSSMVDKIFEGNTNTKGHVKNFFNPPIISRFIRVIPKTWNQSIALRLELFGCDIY

activated protein C (APC)
inactivation of factor Va activity by APC (factor Va activity over time after adding 1.9 nM APC): the replacement of Arg-506 by Gln only prevents the inactivation of the Xa-activated form of factor V by APC
